Assay results reported in article PMC8578170, “Electron carriers involved in autotrophic and heterotrophic acetogenesis in the thermophilic bacterium Thermoanaerobacter kivui” (Extremophiles, 2021).
Values belong to the molecule of their own block, whether it stands above or below them.

Columns and labels:
His-MetFV [1] = molecular target: T1, His-MetFV (Thermoanaerobacter kivui, UniProt A0A097ATJ3); assay: thin-layer chromatography of flavin released from purified complex; type: binding; details: 10 µM FMN in purification buffers unless otherwise specified
T1 construct: gene metF; with Methylenetetrahydrofolate reductase subunit MetV
T1 sequence (A0A097ATJ3 1-291): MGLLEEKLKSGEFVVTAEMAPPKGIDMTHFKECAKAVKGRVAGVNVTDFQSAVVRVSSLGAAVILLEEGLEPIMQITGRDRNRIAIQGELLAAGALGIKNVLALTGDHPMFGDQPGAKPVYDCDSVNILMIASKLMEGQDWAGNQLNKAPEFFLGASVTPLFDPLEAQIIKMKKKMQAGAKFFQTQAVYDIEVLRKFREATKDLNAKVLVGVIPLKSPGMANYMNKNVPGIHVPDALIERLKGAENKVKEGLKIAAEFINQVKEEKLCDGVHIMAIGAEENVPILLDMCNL
T1 sequence (A0A097ATJ4 1-216 partner): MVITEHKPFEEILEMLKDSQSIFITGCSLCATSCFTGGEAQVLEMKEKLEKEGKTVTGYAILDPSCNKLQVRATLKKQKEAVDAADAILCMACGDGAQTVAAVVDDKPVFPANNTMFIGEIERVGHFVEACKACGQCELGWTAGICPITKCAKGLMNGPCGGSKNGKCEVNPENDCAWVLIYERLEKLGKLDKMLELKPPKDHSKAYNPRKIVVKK

His-MetFV [2] = molecular target: T1, His-MetFV; assay: spectrophotometric methyl-THF:benzyl viologen oxidoreductase assay, […] nm; type: biochemical; details: 1 mM methyl-THF, 10 mM benzyl viologen; 50 mM KPi, 20 mM ascorbate, pH 7, 66 °C
His-MetFV [3] = molecular target: T1, His-MetFV; assay: spectrophotometric reduced methyl viologen:methylene-THF oxidoreductase assay, […] nm; type: biochemical; details: methylene-THF formed from 0.5 mM THF and 1.5 mM formaldehyde; 10 mM methyl viologen, dithionite; 50 mM KPi, 20 mM ascorbate, pH 7, 66 °C
[4] = molecular target: His-HydABC, electron-bifurcating hydrogenase complex of T. kivui (Thermoanaerobacter kivui); assay: SEC; analytical size exclusion chromatography on a calibrated Superdex 200 column with size standards; buffer B (50 mM Tris/HCl, 150 mM NaCl, 20 mM MgSO4, 2 mM DTE, 20% glycerol, pH 7.5)
[5] = molecular target: His-HydABC, electron-bifurcating hydrogenase complex of T. kivui (Thermoanaerobacter kivui)
[6] = substrate: Cc1cc2nc3c(=O)[nH]c(=O)nc-3n(C[C@H](O)[C@H](O)[C@H](O)COP(=O)(O)O)c2cc1C; assay: spectrophotometric H2:Fd/NADP+ oxidoreductase assay; type: biochemical, Thermoanaerobacter kivui; details: H2, ferredoxin and NADP+ as co-substrates, pH 8, 66 °C, FMN stimulation of activity, error exceeds the value, varied: cofactor
purified protein = substrate: NC(=O)c1ccc[n+]([C@@H]2O[C@H](COP(=O)(O)OP(=O)(O)OC[C@H]3O[C@@H](n4cnc5c(N)ncnc54)[C@H](OP(=O)(O)O)[C@@H]3O)[C@@H](O)[C@H]2O)c1; assay: purified protein; details: H2 and C. pasteurianum ferredoxin as co-substrates, 5 µM FMN, 50 mM EPPS, 10 mM NaCl, pH 8, 66 °C
[7] = molecular target: the molecule itself; assay: SEC; analytical size exclusion chromatography on a calibrated Superdex 200 column with size standards; buffer B (50 mM Tris/HCl, 150 mM NaCl, 20 mM MgSO4, 2 mM DTE, 20% glycerol, pH 7.5)

Molecule: Cc1cc2nc3c(=O)[nH]c(=O)nc-3n(C[C@H](O)[C@H](O)[C@H](O)COP(=O)(O)O)c2cc1C [FMN]
thin-layer chromatography of flavin released from purified complex (His-MetFV [1]): subsequent separation of the flavin-containing supernatant by thin-layer chromatography (TLC), FMN could be detected

Molecule: CN1c2c(nc(N)[nH]c2=O)NC[C@@H]1CNc1ccc(C(=O)N[C@@H](CCC(=O)O)C(=O)O)cc1 [methyl-THF]
spectrophotometric methyl-THF:benzyl viologen oxidoreductase assay, 600 nm (His-MetFV [2]): oxidation of methyl-THF was not coupled to NAD^+, NADP^+ or Fd reduction

Molecule: Nc1nc2c(c(=O)[nH]1)N1CN(c3ccc(C(=O)N[C@@H](CCC(=O)O)C(=O)O)cc3)C[C@H]1CN2 [methylene-THF]
spectrophotometric reduced methyl viologen:methylene-THF oxidoreductase assay, 6 (His-MetFV [3]): The purified MetFV complex catalyzed the reduction of methylene-THF with reduced MV

stoichiometry N [4]: 2
Molecule: His-HydABC, electron-bifurcating hydrogenase complex of T. kivui (from UniProt A0A097ATG4 1-630; A0A097ATI0 1-170)

Km for Fd in the NADP+-dependent H2:Fd oxidoreductase assay (Fd 0–200 µM, 66 °C) [5]: 13.6 µM
B1: ferredoxin isolated from Clostridium pasteurianum (natural protein)
chain: MAYKIADSCVSCGACASECPVNAISQGDSIFVIDADTCIDCGNCANVCPVGAPVQE

B2: His-HydABC (Thermoanaerobacter kivui) (protein)
chain: MVKLKSIQELENLREKIKEAKKKEKIVIRICGGTGCRASGSLAVRDELVKVLKREGFANVDVNLSSDCLENTSEVHVKMTGCQGFCAQGPLMTIEPLGVFYVGVKPEDVEEIVEKSIKKNEIIERLLYHDPATGKTYVKRDENPFYAKQTRLVLKHCGTVDPASVYDYIAEGGYSAIAKALTMDRKQIIDEVIKSGLRGRGGAGFPTGEKWLGAYKNQSPKKYIICNGDEGDPGAFMDRSVMEGDPHKVIEGMMIGAYAIGSDEGYIYVRAEYPLAVQMLRKAIEECEKLGLLGDNILGTGFSFRLHVREGAGAFVCGESTALTYSIEGKRGMPRVRPPRTNECGLWEMPTVLNNVETFACIPEIILNGGEWFASIGTPTSTGTKIFALSGKVNRTGLVEVPMGLKLRELIFDIGGGIANNKKFKAVQLGGPSGGCVPESQLDLPIDFDSLSKAGAIMGSGGVVVVDEDTCMVDFAKFFTNFIVEESCGKCIPCREGNKKMLEILERITEGKGKEGDIELLEELGDVIISASLCGLGKTAPNPVLSTIKHFRDEYEAHIRDKKCPAGACQALAAYKIDPGKCIGCGKCVKVCPVGAISGEKKKPHVIDQSKCIKCGACAENCPKGAIYKG
notes: HydABC complex, 10xHis tag at 3' end of hydA, plasmid pMU131, produced homologously in T. kivui; Ni-NTA and Superdex 200; 348 kDa, dimer of HydABC (HydA 64, HydB 68, HydC 18 kDa); with Electron-bifurcating [FeFe] hydrogenase subunit HydA; Electron-bifurcating hydrogenase subunit HydC
Km [6]: 0.3 ± 0.8 µM | Km (purified protein): 48.8 ± 10.6 µM

B3: His-MetFV, methylene-THF reductase complex of T. kivui (complex, Thermoanaerobacter kivui)
chain 1: T1 sequence (A0A097ATJ3 1-291)
chain 2: T1 sequence (A0A097ATJ4 1-216 partner)
notes: One MetFV heterodimer; By analytical SEC the purified complex (174 kDa) is consistent with three MetFV heterodimers; It contains iron-sulfur clusters and FMN; also called MTHFR; MetFV heterodimer; source: T. kivui (DSM 2030), plasmid pMU131_His-metFV, produced homologously, purified (Ni2+-NTA, Superdex 200)
stoichiometry N [7]: 3
